Experimental data as given in US7345026 (INSTITUT PASTEUR, dated 2008).

B1: Tyrosinase 368-376-D epitopic peptide (peptide)
peptide: YMDGTMSQV
notes: synthetic peptide; also called Tyrosinase.368-D

Target: T1, HLA-A2.1 molecules on T2 (TAP-, HLA-A2.1+) cells (human)
T1 construct: MHC class I molecule to which peptides were added from outside; Surface HLA-A2.1 was detected with mAb BB7.2; also called H.A.-A2.1
Experiment: T2 cells, peptide binding by surface HLA-A2.1 (BB7.2) flow cytometry; ratio of concentrations reaching 20% of maximal binding

| Binder | RA (relative affinity) |
| --- | --- |
| LLDGTATLRL (synthetic peptide) [gp100 457-466 epitopic peptide] | 1.65 ratio to HIV 1 rt.476 reference peptide |
| VLYRYGSFSV (synthetic peptide) [gp100 476-485 epitopic peptide] | 10 ratio to HIV 1 rt.476 reference peptide |
| MLLAVLYCL (synthetic peptide) [Tyrosinase 1-9 epitopic peptide] | > 60 ratio to HIV 1 rt.476 reference peptide |
| B1 | 2.27 ratio to HIV 1 rt.476 reference peptide |
| ILTVILGVL (synthetic peptide) [Melan-A/MART-1 32-40 epitopic peptide] | 21.1 ratio to HIV 1 rt.476 reference peptide |
